Source: US20230012273A1

How the values were obtained:
[1] = target: ED-tagged human SIRPα V1 receptor on Jurkat signaling reporter cells (human) (UniProt P78324); assay: cell-based or functional assay
[2] = target: ED-tagged human SIRPα V2 receptor on Jurkat signaling reporter cells (human) (UniProt P78324); assay: cell-based or functional assay
ED-tagged human SIRPα V2 receptor on Jurkat signaling reporter cells (human), sequence (P78324 31-504): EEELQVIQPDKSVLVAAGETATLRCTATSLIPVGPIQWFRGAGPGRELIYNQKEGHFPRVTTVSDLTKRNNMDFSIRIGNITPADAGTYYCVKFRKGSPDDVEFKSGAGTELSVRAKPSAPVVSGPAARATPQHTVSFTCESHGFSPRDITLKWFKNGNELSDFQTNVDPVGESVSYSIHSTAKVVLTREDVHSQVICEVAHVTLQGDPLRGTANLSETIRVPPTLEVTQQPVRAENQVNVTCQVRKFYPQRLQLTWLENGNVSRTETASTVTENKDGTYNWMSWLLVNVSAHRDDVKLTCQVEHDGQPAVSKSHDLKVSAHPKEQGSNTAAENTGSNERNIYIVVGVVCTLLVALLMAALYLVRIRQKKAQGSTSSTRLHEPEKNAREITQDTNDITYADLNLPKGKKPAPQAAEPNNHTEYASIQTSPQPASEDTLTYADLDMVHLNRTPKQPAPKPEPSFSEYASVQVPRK

Anti-SIRPα antibody KWAR23, sequence (VH): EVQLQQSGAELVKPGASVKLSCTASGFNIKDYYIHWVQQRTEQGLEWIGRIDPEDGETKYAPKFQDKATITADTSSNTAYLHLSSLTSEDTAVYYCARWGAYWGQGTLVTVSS
Anti-SIRPα antibody KWAR23, sequence (VL): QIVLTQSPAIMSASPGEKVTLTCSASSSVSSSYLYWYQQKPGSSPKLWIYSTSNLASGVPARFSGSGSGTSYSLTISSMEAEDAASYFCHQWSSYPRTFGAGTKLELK
ED-tagged human SIRPα V1 receptor on Jurkat signaling reporter cells (human), sequence (P78324 31-504): as the sequence (P78324 31-504) above

Blockade of Cellular CD47-Mediated SIRPα Signaling; IC50 [1]: 0.04 nM
Blockade of Cellular CD47-Mediated SIRPα Signaling; IC50 [2]: 0.04 nM
Substance: Anti-SIRPα antibody KWAR23
